From patent publication US20030181404

B1: CHK (murine Ctk) immunoprecipitated from mouse brain (protein)
chain: MARRSSRVSWLAFEGWESRDLPRVSPRLFGAWHPAPAAARMPTRWAPGTQCMTKCENSRPKPGELAFRKGDMVTILEACEDKSWYRAKHHGSGQEGLLAAAALRHGEALSTDPKLSLMPWFHGKISGQEAIQQLQPPEDGLFLVRESARHPGDYVLCVSFGRDVIHYRVLHRDGHLTIDEAVCFCNLMDMVEHYTKDKGAICTKLVKPRRKQGAKSAEEELAKAGWLLDLQHLTLGAQIGEGEFGAVLQGEYLGQKVAVKNIKCDVTAQAFLDETAVMTKLQHRNLVRLLGVILHHGLYIVMEHVSKGNLVNFLRTRGRALVSTSQLLQFALHVAEGMEYLESKKLVHRDLAARNILVSEDLVAKVSDFGLAKAERKGLDSSRLPVKWTAPEALKNGRFSSKSDVWSFGVLLWEVFSYGRAPYPKMSLKEVSEAVEKGYRMEPPDGCPGSVHTLMGSCWEAEPARRPPFRKIVEKLGRELRSVGVSAPAGGQEAEGSAPTRSQDP
B2: Csk (murine) immunoprecipitated from mouse brain (protein)
chain: SAIQAAWPSGTECIAKYNFHGTAEQDLPFCKGDVLTIVAVTKDPNWYKAKNKVGREGIIPANYVQKREGVKAGTKLSLMPWFHGKITREQAERLLYPPETGLFLVRESTNYPGDYTLCVSCEGKVEHYRIMYHASKLSIDEEVYFENLMQLVEHYTTDADGLCTRLIKPKVMEGTVAAQDEFYRSGWALNMKELKLLQTIGKGEFGDVMLGDYRGNKVAVKCIKNDATAQAFLAEASVMTQLRHSNLVQLLGVIVEEKGGLYIVTEYMAKGSLVDYLRSRGRSVLGGDCLLKFSLDVCEAMEYLEGNNFVHRDLAARNVLVSEDNVAKVSDFGLTKEASSTQDTGKLPVKWTAPEALREKKFSTKSDVWSFGILLWEIYSFGRVPYPRIPLKDVVPRVEKGYKMDAPDGCPPAVYEVMKNCWHLDAATRPTFLQLREQLEHIKTHELHL

| Protein | in vitro kinase assay of immunoprecipitates (32P incorporation into substrate) (C-terminal src peptide) | in vitro kinase assay of immunoprecipitates (32P incorporation into substrate) (enolase) |
| --- | --- | --- |
| B1 | both kinases phosphoylated the C-terminal scr peptide, enolase and poly Glu/Try to similar degrees | both kinases phosphoylated the C-terminal scr peptide, enolase and poly Glu/Try to similar degrees |
| B2 | both kinases phosphoylated the C-terminal scr peptide, enolase and poly Glu/Try to similar degrees | both kinases phosphoylated the C-terminal scr peptide, enolase and poly Glu/Try to similar degrees |
